Biological target: T1, D2 dopamine receptor (D2R) (Homo sapiens, UniProt P14416)
T1 construct: expressed in transfected cells
Experiment: BRET dose-response assay of βarrestin2 construct recruitment to D2R-RlucII
Assay type: cell-based
Settings: D2R-RlucII with YFP constructs; dopamine 15 min; compared with YFP-βarrestin2
Method: HEK-293 cells were transiently transfected with D2R-RlucII along with YFP-βarr2-WT, YFP-βarr2-SUMO1 or YFP-βarr2-Ub and incubated with the indicated concentrations of dopamine for 15 min. BRET signals were measured as described in Example 1 herein, and changes following agonist treatment are expressed as a percentage of the BRET signal observed in unstimulated cells (top panel). […] The histogram (bottom panel) represents Bmax values of agonist induced BRET as means±SEM of 4 independent experiments performed in duplicates. Significance of changes in energy transfer was established by one-way ANOVA comparing signals measured for the recruitment of βarr2 fusion proteins to D2R-RlucII *p<0.01; **p<0.001.
BRET assays. […] BRET readings were acquired using Synergy Neo2 plate reader and obtained 5 min after manual addition of Rluc substrate, coelenterazine h (Promega) to a final concentration of 5 μM.
The BRET signal generated was determined by calculating the ratio of light emitted by YFP (520-550 nm) over the light emitted by Rluc (440-480 nm). These values were then corrected by subtracting the background signal (detected when the Rluc-tagged construct was expressed without acceptor) from the BRET signal detected in cells co-expressing both donor and acceptor constructs. […]

T1 sequence (P14416 whole entry): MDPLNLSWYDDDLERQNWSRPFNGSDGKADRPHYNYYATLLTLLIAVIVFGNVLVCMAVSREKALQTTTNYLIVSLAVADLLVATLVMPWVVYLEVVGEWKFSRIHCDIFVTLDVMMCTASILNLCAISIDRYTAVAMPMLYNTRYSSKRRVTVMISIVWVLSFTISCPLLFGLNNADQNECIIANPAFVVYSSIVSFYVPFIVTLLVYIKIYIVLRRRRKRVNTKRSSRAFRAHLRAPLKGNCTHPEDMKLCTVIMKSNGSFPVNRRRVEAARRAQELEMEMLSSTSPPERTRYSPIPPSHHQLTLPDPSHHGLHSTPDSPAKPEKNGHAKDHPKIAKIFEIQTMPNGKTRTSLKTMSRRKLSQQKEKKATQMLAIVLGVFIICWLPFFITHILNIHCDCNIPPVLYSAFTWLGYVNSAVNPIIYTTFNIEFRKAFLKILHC

Substance: βarrestin2-SUMO1: rat βarrestin2 polypeptide fused to human SUMO1 (SEQ ID NO:1); used YFP- or Flag-tagged
- agonist-mediated increase in energy transfer (net BRET) with D2R: greater

Source: patent publication US20230227514A1, “BETA-ARRESTIN COMPOSITIONS AND ASSOCIATED METHODS” (Duke University, priority 2020, published 2023)
